Patent publication US20250171562A1

B1: CIgG4D2A1(G4S)2 (Fc fusion)
chain 1: GPPCPPCPAPEFLGGPSVFLFPPKPKDTLMISRTPEVTCVVVDVSQEDPEVQFNWYVDGVEVHNAKTKPREEQFNSTYRVVSVLTVLHQDWLNGKEYKCKVSNKGLPSSIEKTISKAKGQPREPQVYTLPPCQEEMTKNQVSLWCLVKGFYPSDIAVEWESNGQPENNYKTTPPVLDSDGSFFLYSRLTVDKSRWQEGNVFSCSVMHEALHNHYTQKSLSLSLGKGGGGSGGGGSDVQLQESGGGLVEAGGSLRLSCVASGRTFSGWSMGWFRQAPGKEREFVAAISWVGSWIGGTVYSNSVKGRFTISRDNARTTVYLQMNSLKPEDTAVYFCAAANSETPRIFASEYDYWGQGTQVTVS
chain 2: GPPCPPCPAPEFLGGPSVFLFPPKPKDTLMISRTPEVTCVVVDVSQEDPEVQFNWYVDGVEVHNAKTKPREEQFNSTYRVVSVLTVLHQDWLNGKEYKCKVSNKGLPSSIEKTISKAKGQPREPQVCTLPPSQEEMTKNQVSLSCAVKGFYPSDIAVEWESNGQPENNYKTTPPVLDSDGSFFLVSRLTVDKSRWQEGNVFSCSVMHEALHNHYTQKSLSLSLGKGGGGSGGGGSEVQLLESGGGLVQPGGSLRLSCAASGFTFGNYDMAWVRQAPGKRPEWVSSIDTGGDITHYADSVKGRFTISRDNAKNTLYLQMNSLRPEDTAVYWCATDEEYALGPNEFDYYGQGTLVTVSS
B2: CIgG4D2A1(G4S)1 (Fc fusion)
chain 1: GPPCPPCPAPEFLGGPSVFLFPPKPKDTLMISRTPEVTCVVVDVSQEDPEVQFNWYVDGVEVHNAKTKPREEQFNSTYRVVSVLTVLHQDWLNGKEYKCKVSNKGLPSSIEKTISKAKGQPREPQVYTLPPCQEEMTKNQVSLWCLVKGFYPSDIAVEWESNGQPENNYKTTPPVLDSDGSFFLYSRLTVDKSRWQEGNVFSCSVMHEALHNHYTQKSLSLSLGKGGGGSDVQLQESGGGLVEAGGSLRLSCVASGRTFSGWSMGWFRQAPGKEREFVAAISWVGSWIGGTVYSNSVKGRFTISRDNARTTVYLQMNSLKPEDTAVYFCAAANSETPRIFASEYDYWGQGTQVTVS
chain 2: GPPCPPCPAPEFLGGPSVFLFPPKPKDTLMISRTPEVTCVVVDVSQEDPEVQFNWYVDGVEVHNAKTKPREEQFNSTYRVVSVLTVLHQDWLNGKEYKCKVSNKGLPSSIEKTISKAKGQPREPQVCTLPPSQEEMTKNQVSLSCAVKGFYPSDIAVEWESNGQPENNYKTTPPVLDSDGSFFLVSRLTVDKSRWQEGNVFSCSVMHEALHNHYTQKSLSLSLGKGGGGSEVQLLESGGGLVQPGGSLRLSCAASGFTFGNYDMAWVRQAPGKRPEWVSSIDTGGDITHYADSVKGRFTISRDNAKNTLYLQMNSLRPEDTAVYWCATDEEYALGPNEFDYYGQGTLVTVSS
B3: NIgG4D2A1(G4S)2 (Fc fusion)
chain 1: DVQLQESGGGLVEAGGSLRLSCVASGRTFSGWSMGWFRQAPGKEREFVAAISWVGSWIGGTVYSNSVKGRFTISRDNARTTVYLQMNSLKPEDTAVYFCAAANSETPRIFASEYDYWGQGTQVTVSGGGGSGGGGSGPPCPPCPAPEFLGGPSVFLFPPKPKDTLMISRTPEVTCVVVDVSQEDPEVQFNWYVDGVEVHNAKTKPREEQFNSTYRVVSVLTVLHQDWLNGKEYKCKVSNKGLPSSIEKTISKAKGQPREPQVYTLPPCQEEMTKNQVSLWCLVKGFYPSDIAVEWESNGQPENNYKTTPPVLDSDGSFFLYSRLTVDKSRWQEGNVFSCSVMHEALHNHYTQKSLSLSLGK
chain 2: EVQLLESGGGLVQPGGSLRLSCAASGFTFGNYDMAWVRQAPGKRPEWVSSIDTGGDITHYADSVKGRFTISRDNAKNTLYLQMNSLRPEDTAVYWCATDEEYALGPNEFDYYGQGTLVTVSSGGGGSGGGGSGPPCPPCPAPEFLGGPSVFLFPPKPKDTLMISRTPEVTCVVVDVSQEDPEVQFNWYVDGVEVHNAKTKPREEQFNSTYRVVSVLTVLHQDWLNGKEYKCKVSNKGLPSSIEKTISKAKGQPREPQVCTLPPSQEEMTKNQVSLSCAVKGFYPSDIAVEWESNGQPENNYKTTPPVLDSDGSFFLVSRLTVDKSRWQEGNVFSCSVMHEALHNHYTQKSLSLSLGK
B4: CIgG4D2A1(G4S)3 (Fc fusion)
chain 1: GPPCPPCPAPEFLGGPSVFLFPPKPKDTLMISRTPEVTCVVVDVSQEDPEVQFNWYVDGVEVHNAKTKPREEQFNSTYRVVSVLTVLHQDWLNGKEYKCKVSNKGLPSSIEKTISKAKGQPREPQVYTLPPCQEEMTKNQVSLWCLVKGFYPSDIAVEWESNGQPENNYKTTPPVLDSDGSFFLYSRLTVDKSRWQEGNVFSCSVMHEALHNHYTQKSLSLSLGKGGGGSGGGGSGGGGSDVQLQESGGGLVEAGGSLRLSCVASGRTFSGWSMGWFRQAPGKEREFVAAISWVGSWIGGTVYSNSVKGRFTISRDNARTTVYLQMNSLKPEDTAVYFCAAANSETPRIFASEYDYWGQGTQVTVS
chain 2: GPPCPPCPAPEFLGGPSVFLFPPKPKDTLMISRTPEVTCVVVDVSQEDPEVQFNWYVDGVEVHNAKTKPREEQFNSTYRVVSVLTVLHQDWLNGKEYKCKVSNKGLPSSIEKTISKAKGQPREPQVCTLPPSQEEMTKNQVSLSCAVKGFYPSDIAVEWESNGQPENNYKTTPPVLDSDGSFFLVSRLTVDKSRWQEGNVFSCSVMHEALHNHYTQKSLSLSLGKGGGGSGGGGSGGGGSEVQLLESGGGLVQPGGSLRLSCAASGFTFGNYDMAWVRQAPGKRPEWVSSIDTGGDITHYADSVKGRFTISRDNAKNTLYLQMNSLRPEDTAVYWCATDEEYALGPNEFDYYGQGTLVTVSS
B5: NIgG4D2A1(G4S)3 (Fc fusion)
chain 1: DVQLQESGGGLVEAGGSLRLSCVASGRTFSGWSMGWFRQAPGKEREFVAAISWVGSWIGGTVYSNSVKGRFTISRDNARTTVYLQMNSLKPEDTAVYFCAAANSETPRIFASEYDYWGQGTQVTVSGGGGSGGGGSGGGGSGPPCPPCPAPEFLGGPSVFLFPPKPKDTLMISRTPEVTCVVVDVSQEDPEVQFNWYVDGVEVHNAKTKPREEQFNSTYRVVSVLTVLHQDWLNGKEYKCKVSNKGLPSSIEKTISKAKGQPREPQVYTLPPCQEEMTKNQVSLWCLVKGFYPSDIAVEWESNGQPENNYKTTPPVLDSDGSFFLYSRLTVDKSRWQEGNVFSCSVMHEALHNHYTQKSLSLSLGK
chain 2: EVQLLESGGGLVQPGGSLRLSCAASGFTFGNYDMAWVRQAPGKRPEWVSSIDTGGDITHYADSVKGRFTISRDNAKNTLYLQMNSLRPEDTAVYWCATDEEYALGPNEFDYYGQGTLVTVSSGGGGSGGGGSGGGGSGPPCPPCPAPEFLGGPSVFLFPPKPKDTLMISRTPEVTCVVVDVSQEDPEVQFNWYVDGVEVHNAKTKPREEQFNSTYRVVSVLTVLHQDWLNGKEYKCKVSNKGLPSSIEKTISKAKGQPREPQVCTLPPSQEEMTKNQVSLSCAVKGFYPSDIAVEWESNGQPENNYKTTPPVLDSDGSFFLVSRLTVDKSRWQEGNVFSCSVMHEALHNHYTQKSLSLSLGK
B6: CIgG4D2A1(RS) (Fc fusion)
chain 1: GPPCPPCPAPEFLGGPSVFLFPPKPKDTLMISRTPEVTCVVVDVSQEDPEVQFNWYVDGVEVHNAKTKPREEQFNSTYRVVSVLTVLHQDWLNGKEYKCKVSNKGLPSSIEKTISKAKGQPREPQVYTLPPCQEEMTKNQVSLWCLVKGFYPSDIAVEWESNGQPENNYKTTPPVLDSDGSFFLYSRLTVDKSRWQEGNVFSCSVMHEALHNHYTQKSLSLSLGKRSDVQLQESGGGLVEAGGSLRLSCVASGRTFSGWSMGWFRQAPGKEREFVAAISWVGSWIGGTVYSNSVKGRFTISRDNARTTVYLQMNSLKPEDTAVYFCAAANSETPRIFASEYDYWGQGTQVTVS
chain 2: GPPCPPCPAPEFLGGPSVFLFPPKPKDTLMISRTPEVTCVVVDVSQEDPEVQFNWYVDGVEVHNAKTKPREEQFNSTYRVVSVLTVLHQDWLNGKEYKCKVSNKGLPSSIEKTISKAKGQPREPQVCTLPPSQEEMTKNQVSLSCAVKGFYPSDIAVEWESNGQPENNYKTTPPVLDSDGSFFLVSRLTVDKSRWQEGNVFSCSVMHEALHNHYTQKSLSLSLGKRSEVQLLESGGGLVQPGGSLRLSCAASGFTFGNYDMAWVRQAPGKRPEWVSSIDTGGDITHYADSVKGRFTISRDNAKNTLYLQMNSLRPEDTAVYWCATDEEYALGPNEFDYYGQGTLVTVSS
B7: NIgG4D2A1(G4S)1 (Fc fusion)
chain 1: DVQLQESGGGLVEAGGSLRLSCVASGRTFSGWSMGWFRQAPGKEREFVAAISWVGSWIGGTVYSNSVKGRFTISRDNARTTVYLQMNSLKPEDTAVYFCAAANSETPRIFASEYDYWGQGTQVTVSGGGGSGPPCPPCPAPEFLGGPSVFLFPPKPKDTLMISRTPEVTCVVVDVSQEDPEVQFNWYVDGVEVHNAKTKPREEQFNSTYRVVSVLTVLHQDWLNGKEYKCKVSNKGLPSSIEKTISKAKGQPREPQVYTLPPCQEEMTKNQVSLWCLVKGFYPSDIAVEWESNGQPENNYKTTPPVLDSDGSFFLYSRLTVDKSRWQEGNVFSCSVMHEALHNHYTQKSLSLSLGK
chain 2: EVQLLESGGGLVQPGGSLRLSCAASGFTFGNYDMAWVRQAPGKRPEWVSSIDTGGDITHYADSVKGRFTISRDNAKNTLYLQMNSLRPEDTAVYWCATDEEYALGPNEFDYYGQGTLVTVSSGGGGSGPPCPPCPAPEFLGGPSVFLFPPKPKDTLMISRTPEVTCVVVDVSQEDPEVQFNWYVDGVEVHNAKTKPREEQFNSTYRVVSVLTVLHQDWLNGKEYKCKVSNKGLPSSIEKTISKAKGQPREPQVCTLPPSQEEMTKNQVSLSCAVKGFYPSDIAVEWESNGQPENNYKTTPPVLDSDGSFFLVSRLTVDKSRWQEGNVFSCSVMHEALHNHYTQKSLSLSLGK
B8: NIgG4D2A1(RS) (Fc fusion)
chain 1: DVQLQESGGGLVEAGGSLRLSCVASGRTFSGWSMGWFRQAPGKEREFVAAISWVGSWIGGTVYSNSVKGRFTISRDNARTTVYLQMNSLKPEDTAVYFCAAANSETPRIFASEYDYWGQGTQVTVSRSGPPCPPCPAPEFLGGPSVFLFPPKPKDTLMISRTPEVTCVVVDVSQEDPEVQFNWYVDGVEVHNAKTKPREEQFNSTYRVVSVLTVLHQDWLNGKEYKCKVSNKGLPSSIEKTISKAKGQPREPQVYTLPPCQEEMTKNQVSLWCLVKGFYPSDIAVEWESNGQPENNYKTTPPVLDSDGSFFLYSRLTVDKSRWQEGNVFSCSVMHEALHNHYTQKSLSLSLGK
chain 2: EVQLLESGGGLVQPGGSLRLSCAASGFTFGNYDMAWVRQAPGKRPEWVSSIDTGGDITHYADSVKGRFTISRDNAKNTLYLQMNSLRPEDTAVYWCATDEEYALGPNEFDYYGQGTLVTVSSRSGPPCPPCPAPEFLGGPSVFLFPPKPKDTLMISRTPEVTCVVVDVSQEDPEVQFNWYVDGVEVHNAKTKPREEQFNSTYRVVSVLTVLHQDWLNGKEYKCKVSNKGLPSSIEKTISKAKGQPREPQVCTLPPSQEEMTKNQVSLSCAVKGFYPSDIAVEWESNGQPENNYKTTPPVLDSDGSFFLVSRLTVDKSRWQEGNVFSCSVMHEALHNHYTQKSLSLSLGK

molecular target: mixture of three Der p 2 specific recombinant human IgE clones H10, H12, P4E (human) (UniProt P01854); assay: RBL-SX38 IgE displacement, FACS
Sequence (P01854 other isoform, or with tags, fused parts or gaps): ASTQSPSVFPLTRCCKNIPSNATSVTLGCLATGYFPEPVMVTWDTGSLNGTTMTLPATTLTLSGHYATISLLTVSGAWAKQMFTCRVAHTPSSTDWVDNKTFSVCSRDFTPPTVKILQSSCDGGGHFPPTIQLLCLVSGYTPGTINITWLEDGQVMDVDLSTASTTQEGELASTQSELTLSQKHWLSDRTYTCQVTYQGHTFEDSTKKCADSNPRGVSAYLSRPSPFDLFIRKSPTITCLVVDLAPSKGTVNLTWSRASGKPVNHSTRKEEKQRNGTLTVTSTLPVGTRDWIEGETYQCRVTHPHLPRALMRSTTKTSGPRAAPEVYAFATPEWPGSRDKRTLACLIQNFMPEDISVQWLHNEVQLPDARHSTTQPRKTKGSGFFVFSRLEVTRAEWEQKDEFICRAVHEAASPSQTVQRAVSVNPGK

EC50 [nM]	Max effect/effect 1 µM [%]	Binder
39	99	B1
126	95	B2
6.3	96	B3
28.8	99	B4
3.7	88	B5
–	6	B6
8.7	97	B7
12.3	97	B8
